Data as given in article PMC6773860.

Key:
[1] = biological target: human JAM-A on the surface of Lec2-JAM-A cells (human) (UniProt Q9Y624); assay: single-virus force spectroscopy (FD-based AFM); virions on the AFM tip; living Lec2-JAM-A cells co-cultured with fluorescent Lec2 cells; PeakForce QNM mode, 37 °C, culture medium, 5% CO2; no glycan added
[2] = biological target: His6-tagged JAM-A (junctional adhesion molecule A) (UniProt Q9Y624); assay: single-virus force spectroscopy (FD-based AFM); virions or ISVPs covalently linked by a PEG27 spacer to the AFM tip; His6-JAM-A immobilised on an NTA-Ni2+ gold surface; virus buffer (150 mM NaCl, 15 mM MgCl2, 10 mM Tris pH 7.4), ~25 °C; single bonds fitted with the Bell-Evans model; no glycan added
[3] = biological target: His6-tagged JAM-A (junctional adhesion molecule A) (UniProt Q9Y624); assay: single-virus force spectroscopy (FD-based AFM); as a1, after injection of 1 mM sialylated glycan (Neu5Ac or LSTa)
[4] = biological target: human JAM-A on the surface of Lec2-JAM-A cells (human) (UniProt Q9Y624); assay: single-virus force spectroscopy (FD-based AFM); as a4, the same area scanned again after adding 1 mM LNnT to the culture medium
[5] = biological target: human JAM-A on the surface of Lec2-JAM-A cells (human) (UniProt Q9Y624); assay: single-virus force spectroscopy (FD-based AFM); as a4, the same area scanned again after adding 1 mM Neu5Ac or 1 mM LSTa to the culture medium; also on cells treated before with neuraminidase (40 mUnit/mL, 1 h)
[6] = biological target: His6-tagged junctional adhesion molecule A (UniProt Q9Y624); assay: single-virus force spectroscopy (FD-based AFM); virus particles on the AFM tip through a PEG27 linker; His6-JAM-A on an NTA-Ni2+ gold model surface; virus buffer, ~25 °C; after adding 1 mM Neu5Ac; koff of the single bond from a Bell-Evans fit of the DFS plot
[7] = biological target: His6-tagged junctional adhesion molecule A (UniProt Q9Y624); assay: single-virus force spectroscopy (FD-based AFM); virus particles on the AFM tip through a PEG27 linker; His6-JAM-A on an NTA-Ni2+ gold model surface; virus buffer, ~25 °C; after adding 1 mM LSTa; koff of the single bond from a Bell-Evans fit of the DFS plot
[8] = biological target: His6-tagged junctional adhesion molecule A (UniProt Q9Y624); assay: single-virus force spectroscopy (FD-based AFM); virus particles on the AFM tip through a PEG27 linker; His6-JAM-A on an NTA-Ni2+ gold model surface; virus buffer, ~25 °C; after adding 1 mM LNnT (no sialic acid); koff of the single bond from a Bell-Evans fit of the DFS plot

reovirus σ1 attachment protein of mutant strain T3SA− (P204L), on purified virions (from UniProt P03528 1-455) (natural protein)
frequency of adhesion events [1]: 4%
koff [2]: 0.05 s⁻¹
specific binding force [2]: 20 to 130 pN

reovirus σ1 attachment protein of strain T3SA+, on purified virions (from UniProt P03528 1-455) (natural protein)
overall binding force with 1 mM Neu5Ac or LSTa [3]: < 400 pN
simultaneous virus-receptor bonds in the presence of α-SA [3]: < 3
binding frequency after 1 mM LNnT [4]: 3.9%
binding frequency before LNnT [1]: 3.8%
binding frequency before LSTa [1]: 3.8%
binding frequency before Neu5Ac [1]: 3.9%
density of adhesion events [1]: 3.5%
rupture force [1]: 50 to 400 pN
simultaneous virus-receptor bonds [1]: < 4
binding frequency after 1 mM LSTa [5]: 4.8%
binding frequency after 1 mM Neu5Ac [5]: 4.9%
increase in binding after Neu5Ac against before, neuraminidase-treated cells [5]: 20%
koff [2]: 0.04 s⁻¹
specific binding force [2]: 20 to 130 pN

reovirus σ1 attachment protein on T3SA+ infectious subvirion particles (from UniProt P03528 1-455) (natural protein)
koff [6]: 0.18 s⁻¹

reovirus σ1 attachment protein on T3SA- virions (P204L) (from UniProt P03528 1-455)
koff [7]: 0.24 s⁻¹
koff [6]: 0.08 s⁻¹
koff [8]: 0.07 s⁻¹
